US20250206809A1 (UNIVERSITY OF MASSACHUSETTS, published 2025)

B1: VHH antibody 1D7 (monomeric nanobody) (VHH)
VHH: EVQLVESGGGLVQAGGSLTLSCAASERTFSYYVMAWFRQAPGKEREFVAGISMSGDSTKYADSVKGRFTISRDNAENTGYLQMNGLKPEDTAVYYCAADRDIRGNFRSWGRGTQVTVSS
B2: VHH antibody 2R23 (monomeric nanobody) (VHH)
VHH: QVQLQESGGGLVQAGGSLRLSCAASGYIFWSYGYMGWYRQAPGKERELVATISRGGTTNYADSVKGRFTISRDNAKNTVYLQMNSLKPEDTAVYYCAAGRYAFGYFKYWGQGTQVTVSS
notes: Yeast-library clone, expressed in the E. coli periplasm
B3: VHH antibody 2R215 (monomeric nanobody) (VHH)
VHH: QVQLQESGGGLVQAGGSLRLSCAASGNIFQDAEMGWYRQAPGKEREFVATIAYGGNTNYADSVKGRFTISRDNAKNTVYLQMNSLKPEDTAVYYCAVYTGVYYDRTTGGYVAFEYWGQGTQVTVSS
notes: Yeast-library clone, expressed in the E. coli periplasm and purified by Ni-NTA; also called monomeric 2R215; monomeric VHH 2R215
B4: VHH antibody 1H4 (monomeric nanobody) (VHH)
VHH: EVQLVESGGGLVQAGGSLRLSCAASSRTFNHYNIGWFRQAPGKEREFAAAITWNGRSTLYADSVKGRFTISRDNAKNTVYLQMNSLKPEDTAVYYCATLTTWEHKWEYNSQGQGTQVTVSS

Biological target: T1, MBP-CfaE-N (recombinant N-terminal adhesin domain of CfaE fused to an MBP tag) (enterotoxigenic Escherichia coli, UniProt P0AEX9 27-392 = MBP, Biotinylated for SPR; FITC or Alexa Fluor labelled for yeast flow cytometry.)
T1 construct: It was used unlabelled in ELISA, 'biotinylated' on the chip in the SPR methods, and FITC/Alexa-labelled in yeast flow cytometry; also called recombinant N-terminal truncated CfaE protein; N-terminal truncation of CfaE; not shown: MBP tag and linker of vector pMAL-C5X, and the donor strand complement
T1 sequence: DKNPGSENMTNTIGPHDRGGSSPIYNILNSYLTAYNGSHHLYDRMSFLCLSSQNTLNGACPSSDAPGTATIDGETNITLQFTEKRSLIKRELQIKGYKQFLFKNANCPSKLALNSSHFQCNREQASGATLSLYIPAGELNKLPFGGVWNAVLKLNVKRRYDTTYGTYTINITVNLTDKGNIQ
Assay: SPR, Biacore T200, CfaE on CM5 chip, VHH injected, 25 °C, 1:1 model

Binder | Kd [nM] | koff [s⁻¹] | kon [M⁻¹ s⁻¹]
B1 | 17.7 | 0.0311 | 1.75e+06
B2 | 9.06 | 64.6 | 7.13e+09

Biological target: T2, CS19
T2 construct: not the CS19 on an ETEC strain; also called recombinant CS19; N-terminal adhesin domain of CsdD with MBP tag; not shown: MBP tag from vector pMAL-C5X, with any linker or donor-strand complement
T2 chain: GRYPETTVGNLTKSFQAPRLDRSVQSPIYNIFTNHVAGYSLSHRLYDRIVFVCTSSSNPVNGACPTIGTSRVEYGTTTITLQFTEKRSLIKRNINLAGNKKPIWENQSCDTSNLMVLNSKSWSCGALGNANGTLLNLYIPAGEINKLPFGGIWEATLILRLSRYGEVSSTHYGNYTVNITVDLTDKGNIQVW
Assay: ELISA: plate coated with the recombinant antigen, purified VHH titrated (y axis printed as absorbance at 405, the text says OD450)

Binder | binding result
B3 | binds

Biological target: T3, CS14
T3 construct: not the CS14 on an ETEC strain; also called recombinant CS14; N-terminal adhesin domain of CsuD with MBP tag; not shown: MBP tag from vector pMAL-C5X, with any linker or donor-strand complement
T3 chain: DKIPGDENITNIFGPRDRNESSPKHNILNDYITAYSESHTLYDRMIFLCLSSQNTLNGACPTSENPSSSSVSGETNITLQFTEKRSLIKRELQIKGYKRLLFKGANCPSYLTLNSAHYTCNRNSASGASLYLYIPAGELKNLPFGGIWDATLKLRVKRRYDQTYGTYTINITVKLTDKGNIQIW
Assay: as above

Binder | binding result
B2 | binds

Biological target: CS5 on an ETEC strain (enterotoxigenic Escherichia coli)
Assay: cell-based or functional assay

Binder | MRHA IC100 [µg/mL]
B4 | 3.12
B1 | 3.12
B3 | 6.25
B2 | 12.5

Biological target: CS1 on an ETEC strain (enterotoxigenic Escherichia coli)
Assay: cell-based or functional assay

Binder | MRHA IC100 [µg/mL]
B4 | 100
B1 | 50
B3 | 200
B2 | 200

Biological target: CS6 on an ETEC strain (enterotoxigenic Escherichia coli)
Assay: cell-based or functional assay

Binder | MRHA IC100 [µg/mL]
B4 | 25
B1 | 12.5
B3 | 25
B2 | 12.5

Biological target: T4, CFA/I (adhesin CfaE) on ETEC strain H10407 (enterotoxigenic Escherichia coli strain …, UniProt P25734 1-360)
T4 sequence (looked up): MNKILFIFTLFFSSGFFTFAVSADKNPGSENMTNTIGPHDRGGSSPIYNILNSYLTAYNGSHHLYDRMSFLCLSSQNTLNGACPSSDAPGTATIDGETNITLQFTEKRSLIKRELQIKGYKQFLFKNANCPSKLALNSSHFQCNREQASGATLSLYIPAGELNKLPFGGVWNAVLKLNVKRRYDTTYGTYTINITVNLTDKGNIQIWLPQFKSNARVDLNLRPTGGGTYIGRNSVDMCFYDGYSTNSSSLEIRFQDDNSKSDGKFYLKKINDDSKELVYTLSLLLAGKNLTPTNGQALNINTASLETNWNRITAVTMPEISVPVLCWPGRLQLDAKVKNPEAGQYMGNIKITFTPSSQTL
Assay: cell-based or functional assay

Binder | MRHA IC100 [µg/mL]
B4 | 200
B1 | 100
B3 | 25
B2 | 50

Biological target: CS3 on an ETEC strain (enterotoxigenic Escherichia coli)
Assay: cell-based or functional assay

Binder | MRHA IC100 [µg/mL]
B4 | 100
B1 | 50
B3 | 100
B2 | 100

Biological target: CS2 on an ETEC strain (enterotoxigenic Escherichia coli)
Assay: cell-based or functional assay

Binder | MRHA IC100 [µg/mL]
B4 | 100
B1 | 50
B3 | 6.25
B2 | 200

Biological target: CS14 on an ETEC strain (enterotoxigenic Escherichia coli)
Assay: cell-based or functional assay

Binder | MRHA IC100 [µg/mL]
B4 | 100
B1 | 100
B3 | 200
B2 | 25

Biological target: CS4 on an ETEC strain (enterotoxigenic Escherichia coli)
Assay: cell-based or functional assay

Binder | MRHA IC100 [µg/mL]
B4 | 25
B1 | 200
B3 | 100
B2 | 25

Biological target: CS17 on an ETEC strain (enterotoxigenic Escherichia coli)
Assay: cell-based or functional assay

Binder | MRHA IC100 [µg/mL]
B4 | 6.25
B1 | 6.25
B3 | 6.25
B2 | 6.25

Biological target: CS21 on an ETEC strain (enterotoxigenic Escherichia coli)
Assay: cell-based or functional assay

Binder | MRHA IC100 [µg/mL]
B4 | 25
B1 | 25
B3 | 25
B2 | 25

Biological target: CS19 on an ETEC strain (enterotoxigenic Escherichia coli)
Assay: cell-based or functional assay

Binder | MRHA IC100 [µg/mL]
B4 | 100
B1 | 100
B3 | 200
B2 | 200
